# Measured values published in the supplement of paper PMC6757056.
# ± gives the standard deviation of the averaged measurements.
# B1: library; a variant is named by its letters at N, in order (parent)
# chain: GCUGUCACCGGUGUAUUACCCUAGUGGUCGACCGGUCUGAUGAGUCUNNNNNNAGACGAAACAGC
# What was measured:
# hypoxanthine [1] = variants of: B1; assay: FACS-Seq fitted mean relative fluorescence mCherry/BFP without ligand (log10 relative fluorescence); ligand: hypoxanthine (xanthine aptamer); higher = higher reporter protein expression; conditions: HEK293T, ligand present: no
# Procedure, shortened: (§1)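 Reporter cells were enriched HEK293T libraries transduced by lentivirus with mCherry behind the ribozyme switch and with an EF1α-BFP marker. Following 48 h with or without ligand, they were sorted into 6 mCherry/BFP bins, and bin genomic DNA was PCR-amplified, barcoded and MiSeq-sequenced. Fluorescence was computed as the fitted normal mean of the bin counts. The fit used log10(mCherry/BFP), with scaling to five spiked-in control ribozymes.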
# hypoxanthine [2] = variants of: B1; assay: normalized RNA/DNA level with ligand (relative to sTRSVctl = 100) (log10 (% of sTRSVctl)); ligand: hypoxanthine (xanthine aptamer); higher = less ribozyme self-cleavage, higher mRNA level; conditions: ligand concentration (+) RNA-Seq: 5 mM, HEK293T, reporter: mCherry (pCS4076), ligand present: yes
# Description: (§2)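 Hammerhead (sTRSV) ribozyme switch libraries with a ligand aptamer grafted on stem I and a randomized N4-6 loop II, cloned into the 3' UTR of mCherry and transiently transfected into HEK293T cells; RNA-Seq 72 h post transfection with ligand added 1 h before transfection; RNA read count / plasmid DNA read count normalized to the non-cleaving sTRSVctl (x100), log10; sequences with >100 DNA reads. FACS-Seq: lentiviral library sorted into 6 bins after 48 h ligand, log-normal fit mean of mCherry/BFP scaled to controls. Printed sequences are partial switch sequences.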
# hypoxanthine [3] = variants of: B1; assay: normalized RNA/DNA level without ligand (relative to sTRSVctl = 100) (log10 (% of sTRSVctl)); ligand: hypoxanthine (xanthine aptamer); higher = less ribozyme self-cleavage, higher mRNA level; conditions: HEK293T, reporter: mCherry (pCS4076), ligand present: no
# Description: as §2
# hypoxanthine [4] = variants of: B1; assay: FACS-Seq fitted mean relative fluorescence mCherry/BFP with ligand (log10 relative fluorescence); ligand: hypoxanthine (xanthine aptamer); ligand concentration (+) FACS-Seq: 5 mM; higher = higher reporter protein expression; conditions: HEK293T, ligand present: yes
# Procedure, shortened: as §1
Variant,FACS-Seq fitted mean (log10) (hypoxanthine [1]),normalized RNA/DNA level with ligand (log10) (hypoxanthine [2]),normalized RNA/DNA level without ligand (log10) (hypoxanthine [3]),FACS-Seq fitted mean (log10) (hypoxanthine [4])
AACUGG,0.285 ± 0.031,1.7871 ± 0.0011,1.42 ± 0.039,0.67312 ± 0.00058
AACUGU,0.343 ± 0.028,1.89 ± 0.027,1.72 ± 0.014,0.538 ± 0.014
GACUAU,0.185 ± 0.051,1.92 ± 0.077,1.829 ± 0.016,0.377 ± 0.004
GACUAA,0.354 ± 0.073,1.89 ± 0.027,1.796 ± 0.0046,0.515 ± 0.01
GACCCC,0.0047 ± 0.072,1.94 ± 0.019,1.87 ± 0.038,0.161 ± 0.06
GACCCU,-0.308 ± 0.41,1.99 ± 0.023,1.972 ± 0.0096,0.1808 ± 0.00023
GACCCG,0.0296 ± 0.027,1.89 ± 0.022,1.632 ± 0.016,0.292 ± 0.047
CACCGA,0.374 ± 0.048,1.94 ± 0.0088,1.8 ± 0.038,0.516 ± 0.011
AACGGA,0.375 ± 0.033,1.917 ± 0.01,1.62 ± 0.035,0.525 ± 0.041
AACGGG,0.0434 ± 0.0087,1.83 ± 0.074,1.38 ± 0.036,0.516 ± 0.021
AACGGU,0.118 ± 0.036,1.88 ± 0.034,1.577 ± 0.01,0.3457 ± 0.0031
AACGGC,0.644 ± 0.088,1.95 ± 0.02,1.816 ± 0.012,0.696 ± 0.074
GAGACU,-0.451 ± 0.03,1.96 ± 0.047,1.83 ± 0.031,-0.205 ± 0.035
GAGACA,0.3113 ± 0.00099,1.905 ± 0.0057,1.68 ± 0.029,0.548 ± 0.014
GAGACG,0.287 ± 0.0096,1.749 ± 0.015,1.25 ± 0.055,0.807 ± 0.067
AACUUU,0.233 ± 0.078,1.92 ± 0.038,1.9 ± 0.058,0.348 ± 0.087
AACUUG,0.597 ± 0.037,1.87 ± 0.027,1.54 ± 0.03,0.726 ± 0.1
AACUUA,0.394 ± 0.02,1.9 ± 0.021,1.857 ± 0.013,0.581 ± 0.02

Variant,FACS-Seq fitted mean (log10) (hypoxanthine [1]),normalized RNA/DNA level with ligand (log10) (hypoxanthine [2]),normalized RNA/DNA level without ligand (log10) (hypoxanthine [3]),FACS-Seq fitted mean (log10) (hypoxanthine [4])
CACGCU,0.785 ± 0.049,1.93 ± 0.034,1.87 ± 0.021,0.774 ± 0.079
AACCGA,0.422 ± 0.041,1.9477 ± 0.0019,1.72 ± 0.019,0.533 ± 0.044
AACCGG,0.0275 ± 0.00055,1.877 ± 0.011,1.43 ± 0.031,0.526 ± 0.015
AACCGC,-0.101 ± 0.015,1.916 ± 0.014,1.79 ± 0.036,0.124 ± 0.016
AACCGU,0.798 ± 0.12,1.889 ± 0.0024,1.75 ± 0.057,0.637 ± 0.047
AACAGU,-0.0447 ± 0.045,1.87 ± 0.047,1.54 ± 0.018,0.4214 ± 0.0042
AACAGG,0.1 ± 0.034,1.76 ± 0.042,1.291 ± 0.0056,0.57 ± 0.031
UACUCA,0.0121 ± 0.031,1.95 ± 0.029,1.907 ± 0.0097,0.0228 ± 0.0046
AACGCU,0.624 ± 0.015,1.94 ± 0.032,1.85 ± 0.023,0.548 ± 0.11
AACGCC,0.0156 ± 0.023,1.94 ± 0.048,1.84 ± 0.037,0.1 ± 0.21
AACGCG,-0.0882 ± 0.017,1.812 ± 0.011,1.33 ± 0.08,0.162 ± 0.024
AACAUA,0.665 ± 0.084,1.89 ± 0.021,1.801 ± 0.018,0.63 ± 0.035
AACAUG,0.137 ± 0.021,1.861 ± 0.0051,1.44 ± 0.042,0.447 ± 0.013
CAGACA,0.574 ± 0.043,1.96 ± 0.032,1.75 ± 0.045,0.74 ± 0.064
AAGCAA,0.4932 ± 0.00094,1.899 ± 0.0026,1.61 ± 0.053,0.591 ± 0.03
AAGCAG,-0.122 ± 0.013,1.64 ± 0.044,1.19 ± 0.02,0.501 ± 0.039
AAGAGG,-0.185 ± 0.01,1.43 ± 0.017,1.065 ± 0.0061,0.478 ± 0.048
AAGAGU,0.323 ± 0.065,1.81 ± 0.025,1.4 ± 0.047,0.664 ± 0.051
